The source of these data is patent US20260224670.

For this data set, the target named is T1, EB2 of mouse neurons and mouse brain, Q8R001.
T1 chain: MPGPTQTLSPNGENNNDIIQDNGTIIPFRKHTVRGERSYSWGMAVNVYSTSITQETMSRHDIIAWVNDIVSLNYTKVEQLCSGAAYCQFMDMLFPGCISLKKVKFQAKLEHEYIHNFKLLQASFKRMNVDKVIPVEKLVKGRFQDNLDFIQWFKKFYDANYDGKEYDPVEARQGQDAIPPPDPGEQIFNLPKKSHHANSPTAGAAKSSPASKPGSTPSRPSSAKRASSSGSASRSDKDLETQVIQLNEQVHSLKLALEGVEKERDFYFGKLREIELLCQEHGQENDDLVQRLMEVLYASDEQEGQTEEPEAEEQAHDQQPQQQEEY

B1: hCDKL2 (cyclin dependent kinase like 2), 3xFLAG-TwinStrep tagged (protein)
chain: MEKYENLGLVGEGSYGMVMKCRNKDTGRIVAIKKFLESDDDKMVKKIAMREIKLLKQLRHENLVNLLEVCKKKKRWYLVFEFVDHTILDDLELFPNGLDYQVVQKYLFQIINGIGFCHSHNIIHRDIKPENILVSQSGVVKLCDFGFARTLAAPGEVYTDYVATRWYRAPELLVGDVKYGKAVDVWAIGCLVTEMFMGEPLFPGDSDIDQLYHIMMCLGNLIPRHQELFNKNPVFAGVRLPEIKEREPLERRYPKLSEVVIDLAKKCLHIDPDKRPFCAELLHHDFFQMDGFAERFSQELQLKVQKDARNVSLSKKSQNRKKEKEKDDSLVEERKTLVVQDTNADPKIKDYKLFKIKGSKIDGEKAEKGNRASNASCLHDSRTSHNKIVPSTSLKDCSNVSVDHTRNPSVAIPPLTHNLSAVAPSINSGMGTETIPIQGYRVDEKTKKCSIPFVKPNRHSPSGIYNINVTTLVSGPPLSDDSGADLPQMEHQH
For B1, the “phospho-Ser222 EB2 in transfected CDKL5 KO primary cortical neurons” value (“phospho-Ser222 EB2” below) is on record as “pS222 EB2 is specifically increased in the neurons that express these kinases”.

B2: mouse CDKL2 (endogenous) (protein)
chain: MEKYENLGLVGEGSYGMVMKCRNKDSGRIVAIKKFLESDDDKMVKKIAMREIKLLKQLRHENLVNLLEVCKKKKRWYLVFEFVDHTILDDLKLFPNGLDYQVVQKYLFQIINGIGFCHSHNIIHRDIKPENILVSQSGVVKLCDFGFARTLAAPGEVYTDYVATRWYRAPELLVGDVKYGKAVDIWAIGCLVIEMLMGQPLFPGESDIDQLHHIMTCLGNLIPRHQELFYKNPVFAGVRLPEVKDAEAEPLESRYPKLPEAVISLAKKCLHIDPDKRPFCADLLRHDFFQMDGFAERFSQELQLKIEKDARNNSLPKKSQNRKKEKDDALGEERKTLVVQDTNADPKIKDSKVFKVKGSKIDVEKMEKGSRASNANCLHDNGTNHKGLASTSLRDCSNVNIDHSRNPGTAIPPLTHNLSAVAPGINAGMGTIPGVQNYRVDEKTKKYCNPFVKPNQPPPAGIYNMNVSTSVSGEKYLLQANKKRKEYPKADVRLPELNYNHLPELRALEGIARNSRLIKKENKCLSESRIPSLAAIDLHVSSVASHQGAGSPLSDDSEADLPRMEHQH
Take B2: the “okadaic acid dependent increase of pEB2/EB2 in CDKL5 KO primary neurons after CDKL2 shRNA knockdown” value is on record as “Both shRNAs caused a reduction of the OA dependent increase of pEB2/EB2”.

B3: CDKL5 (recombinantly expressed) (protein)
chain: MKIPNIGNVMNKFEILGVVGEGAYGVVLKCRHKETHEIVAIKKFKDSEENEEVKETTLRELKMLRTLKQENIVELKEAFRRRGKLYLVFEYVEKNMLELLEEMPNGVPPEKVKSYIYQLIKAIHWCHKNDIVHRDIKPENLLISHNDVLKLCDFGFARNLSEGNNANYTEYVATRWYRSPELLLGAPYGKSVDMWSVGCILGELSDGQPLFPGESEIDQLFTIQKVLGPLPSEQMKLFYSNPRFHGLRFPAVNHPQSLERRYLGILNSVLLDLMKNLLKLDPADRYLTEQCLNHPTFQTQRLLDRSPSRSAKRKPYHVESSTLSNRNQAGKSTALQSHHRSNSKDIQNLSVGLPRADEGLPANESFLNGNLAGASLSPLHTKTYQASSQPGSTSKDLTNNNIPHLLSPKEAKSKTEFDFNIDPKPSEGPGTKYLKSNSRSQQNRHSFMESSQSKAGTLQPNEKQSRHSYIDTIPQSSRSPSYRTKAKSHGALSDSKSVSNLSEARAQIAEPSTSRYFPSSCLDLNSPTSPTPTRHSDTRTLLSPSGRNNRNEGTLDSRRTTTRHSKTMEELKLPEHMDSSHSHSLSAPHESFSYGLGYTSPFSSQQRPHRHSMYVTRDKVRAKGLDGSLSIGQGMAARANSLQLLSPQPGEQLPPEMTVARSSVKETSREGTSSFHTRQKSEGGVYHDPHSDDGTAPKENRHLYNDPVPRRVGSFYRVPSPRPDNSFHENNVSTRVSSLPSESSSGTNHSKRQPAFDPWKSPENISHSEQLKEKEKQGFFRSMKKKKKKSQTVPNSDSPDLLTLQKSIHSASTPSSRPKEWRPEKISDLQTQSQPLKSLRKLLHLSSASNHPASSDPRFQPLTAQQTKNSFSEIRIHPLSQASGGSSNIRQEPAPKGRPALQLPGQMDPGWHVSSVTRSATEGPSYSEQLGAKSGPNGHPYNRTNRSRMPNLNDLKETAL
With B3, the “phospho-Ser222 EB2” value is reported as “pS222 EB2 is specifically increased in the neurons that express these kinases”.

B4: hICK, 3xFLAG-TwinStrep tagged (protein)
chain: MNRYTTIRQLGDGTYGSVLLGRSIESGELIAIKKMKRKFYSWEECMNLREVKSLKKLNHANVVKLKEVIRENDHLYFIFEYMKENLYQLIKERNKLFPESAIRNIMYQILQGLAFIHKHGFFHRDLKPENLLCMGPELVKIADFGLAREIRSKPPYTDYVSTRWYRAPEVLLRSTNYSSPIDVWAVGCIMAEVYTLRPLFPGASEIDTIFKICQVLGTPKKTDWPEGYQLSSAMNFRWPQCVPNNLKTLIPNASSEAVQLLRDMLQWDPKKRPTASQALRYPYFQVGHPLGSTTQNLQDSEKPQKGILEKAGPPPYIKPVPPAQPPAKPHTRISSRQHQASQPPLHLTYPYKAEVSRTDHPSHLQEDKPSPLLFPSLHNKHPQSKITAGLEHKNGEIKPKSRRRWGLISRSTKDSDDWADLDDLDFSPSLSRIDLKNKKRQSDDTLCRFESVLDLKPSEPVGTGNSAPTQTSYQRRDTPTLRSAAKQHYLKHSRYLPGISIRNGILSNPGKEFIPPNPWSSSGLSGKSSGTMSVISKVNSVGSSSTSSSGLTGNYVPSFLKKEIGSAMQRVHLAPIPDPSPGYSSLKAMRPHPGRPFFHTQPRSTPGLIPRPPAAQPVHGRTDWASKYASRR
In the case of B4, the “phospho-Ser222 EB2” value is “pS222 EB2 is specifically increased in the neurons that express these kinases”.

B5: mouse CDKL5 (endogenous) (protein)
chain: MKIPNIGNVMNKFEILGVVGEGAYGVVLKCRHKETHEIVAIKKFKDSEENEEVKETTLRELKMLRTLKQENIVELKEAFRRRGKLYLVFEYVEKNMLELLEEMPNGVPPEKVKSYIYQLIKAIHWCHKNDIVHRDIKPENLLISHNDVLKLCDFGFARNLSEGNNANYTEYVATRWYRSPELLLGAPYGKSVDMWSVGCILGELSDGQPLFPGESEIDQLFTIQKVLGPLPSEQMKLFYSNPRFHGLRFPAVNHPQSLERRYLGILNSVLLDLMKNLLKLDPADRYLTEQCLNHPTFQTQRLLDRSPSRSTKRKPYHVESSTLSNRNQSTKGAALQTHHRSNSKDIQNLSVGLPRAEEGLPANESFLNGNLAGATLSPMHTKTYQASTQPGSSSKDLTNNNIPHLLSPKEAKSKTEFDFNIDTKPSEGPGTKYLKSSTRSQQNRHSFMESSQSKAGTLQPSEKQSRHSYIDTIPQSSRSPSYRTKAKSHGALSDSKSVSNLSEARAQITETNTSRYFPSSCLDLNSPTSPTPTRHTDTRTLLSPSGRNNRNEGTLDSRRTTTRHSKTMEELKLPEHMDSSHSHSLSAPHESFSYGLGYTSPFSSQQRPHRHSMYVTRDKVRAKGLDGSLSIGQGMAARANSLQLLSPQPGEQLPPEMTVARPSVKESSREGASSFHTRQKSEGGVYHDPHSDDGTAPKENRHLYNDPVPRRVGSFYRVPSPRPDNSFHENNVSTRVSSLPSDSSSGTNHSKRQPGFDPWKSPENISHADQLKEKEKQGFFRSMKKKKKKTQTVPNTDGPDLLTLQKAIHSSSTASSRPKEWRPEKLSDLQTQSQPLKSLRKLLHLSSSTNHPASSDPRFQPLTAQQAKNSFSEIRIHPLSQATGGSSNIRQEPTPKGRPALQLPGSSLLRYNGWKHSRSRSSQPDEVIFLASHEKWKQ
With B5, the “pS222 EB2 in primary cortical cultures of CDKL5 KO against wild type littermates” value was “pS222 EB2 is much lower in CDKL5 KOs”.
